The experiment addresses human FGFR1c + KLB receptor complex on HEK293 iLite FGF21 reporter cells (human, UniProt P11362 22-822; Q86Z14 1-1044). The experiment in a line: cell-based or functional assay.

Chain of human FGFR1c + KLB receptor complex on HEK293 iLite FGF21 reporter cells (P11362 22-822, chain 1 of 2): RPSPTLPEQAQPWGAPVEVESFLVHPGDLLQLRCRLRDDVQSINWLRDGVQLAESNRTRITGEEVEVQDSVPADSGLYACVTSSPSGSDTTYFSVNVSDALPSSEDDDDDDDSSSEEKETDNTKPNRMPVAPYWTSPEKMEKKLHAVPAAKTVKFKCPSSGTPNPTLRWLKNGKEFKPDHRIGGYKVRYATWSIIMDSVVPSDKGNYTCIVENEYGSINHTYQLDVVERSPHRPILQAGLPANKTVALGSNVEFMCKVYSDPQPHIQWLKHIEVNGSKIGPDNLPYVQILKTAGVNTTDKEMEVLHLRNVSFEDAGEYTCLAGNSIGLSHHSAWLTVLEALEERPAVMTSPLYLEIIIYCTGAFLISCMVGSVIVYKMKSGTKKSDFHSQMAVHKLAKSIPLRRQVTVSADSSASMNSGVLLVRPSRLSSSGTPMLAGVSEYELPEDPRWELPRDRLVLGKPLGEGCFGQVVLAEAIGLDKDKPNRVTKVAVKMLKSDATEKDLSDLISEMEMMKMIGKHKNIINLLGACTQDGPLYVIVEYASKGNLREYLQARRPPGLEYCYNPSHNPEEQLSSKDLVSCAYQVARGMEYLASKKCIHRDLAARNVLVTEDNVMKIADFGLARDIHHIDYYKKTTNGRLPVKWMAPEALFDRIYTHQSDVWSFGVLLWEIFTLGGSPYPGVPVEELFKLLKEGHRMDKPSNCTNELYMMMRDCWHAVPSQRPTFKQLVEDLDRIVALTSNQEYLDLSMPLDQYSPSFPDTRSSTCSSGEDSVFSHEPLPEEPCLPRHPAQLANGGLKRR
Chain of human FGFR1c + KLB receptor complex on HEK293 iLite FGF21 reporter cells (Q86Z14 whole entry, chain 2 of 2): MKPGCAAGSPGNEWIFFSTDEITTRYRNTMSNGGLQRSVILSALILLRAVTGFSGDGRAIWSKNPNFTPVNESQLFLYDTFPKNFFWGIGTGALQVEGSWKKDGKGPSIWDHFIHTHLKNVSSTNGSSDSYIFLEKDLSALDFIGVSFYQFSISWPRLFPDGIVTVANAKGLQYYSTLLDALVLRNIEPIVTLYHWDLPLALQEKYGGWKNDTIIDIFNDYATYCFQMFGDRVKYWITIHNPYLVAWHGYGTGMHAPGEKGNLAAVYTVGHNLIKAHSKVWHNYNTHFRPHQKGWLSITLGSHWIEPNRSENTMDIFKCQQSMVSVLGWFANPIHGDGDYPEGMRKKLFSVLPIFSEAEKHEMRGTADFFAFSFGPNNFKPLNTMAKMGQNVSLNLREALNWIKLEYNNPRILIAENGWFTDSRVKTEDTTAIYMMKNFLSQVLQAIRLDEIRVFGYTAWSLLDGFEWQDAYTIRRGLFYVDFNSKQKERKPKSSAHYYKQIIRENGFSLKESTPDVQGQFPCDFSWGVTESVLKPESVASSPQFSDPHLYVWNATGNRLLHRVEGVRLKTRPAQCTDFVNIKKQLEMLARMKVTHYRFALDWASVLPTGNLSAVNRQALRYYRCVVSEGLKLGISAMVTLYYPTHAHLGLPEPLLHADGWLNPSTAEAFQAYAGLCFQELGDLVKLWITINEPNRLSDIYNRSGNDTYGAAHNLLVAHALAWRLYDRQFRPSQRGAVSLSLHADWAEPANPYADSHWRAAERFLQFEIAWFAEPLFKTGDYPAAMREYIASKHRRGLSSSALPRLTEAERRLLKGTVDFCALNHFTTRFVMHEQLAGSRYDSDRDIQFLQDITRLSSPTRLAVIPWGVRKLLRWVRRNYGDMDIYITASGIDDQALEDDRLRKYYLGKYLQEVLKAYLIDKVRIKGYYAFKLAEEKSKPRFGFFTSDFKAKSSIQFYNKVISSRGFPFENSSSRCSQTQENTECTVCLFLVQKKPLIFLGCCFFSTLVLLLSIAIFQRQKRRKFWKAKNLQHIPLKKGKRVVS

B1: human FGF21 (ligand)
chain: GHPIPDSSPLLQFGGQVRQRYLYTDDAQQTEAHLEIREDGTVGGAADQSPESLLQLKALKPGVIQILGVKTSRFLCQRPDGALYGSLHFDPEACSFRELLLEDGYNVYQSEAHGLPLHLPGNKSPHRDPAPRGPARFLPLPGLPPAPPEPPGILAPQPPDVGSSDPLSMVGPSQGRSPSYAS
As for B1, the EC50 (in general, the concentration at which the effect is half-maximal) was 0.35 nM and the maximal effect (Emax) (in general, the greatest response seen or fitted, relative to the assay's reference) was 4000%.

B2: Ab0181 (antibody, IgG4, V domains shown)
VH: not shown
VL: SYVLTQPPSVSVAPGQTARITCGGNNIGSESVHWYQQKPGQAPVLVVYYDSDRPSGIPERFSGSNSGNTATLTISRVEAGDEADYYCQVWDGNSDHVVFGGGTKLTVLG
As for B2, the EC50 was 0.03 nM and the Emax was determined as 2110%.

B3: Ab0185 (antibody, IgG4, V domains shown)
VH: not shown
VL: SYVLTQPPSVSVAPGQTARITCGGNNIGSESVHWYQQKPGQAPVLVVYDDSDRPSGIPERFSGSNSGNTATLTISRVEAGDEADYYCQVWDGNSEHVVFGGGTKLTVLG
For the molecule B3, the EC50 worked out at 0.06 nM and the Emax is 2350%.

B4: Ab0206 (antibody, IgG4, V domains shown)
VH: QVTLKESGPVLVKPTETLTLTCTVSGFSLNNARVGVSWIRQPPGKALEWLAHIFSNDEKSYSTSLKSRLTISKDTSKSQVVLTMTNMDPVDTATYYCARSVVTGGYYYEGMDVWGQGTTVTVSS
VL: SYVLTQPPSVSVAPGQTARITCGGNNIGSESVHWYQQKPGQAPVLVVYDDSDRPSGIPERFSGSNSGNTATLTISRVEAGDEADYYCQVWDGNSEHVVFGGGTKLTVLG
As to B4, the EC50 was 0.69 nM and the Emax worked out at 2640%.

B5: Ab0192 (antibody, IgG4, V domains shown)
VH: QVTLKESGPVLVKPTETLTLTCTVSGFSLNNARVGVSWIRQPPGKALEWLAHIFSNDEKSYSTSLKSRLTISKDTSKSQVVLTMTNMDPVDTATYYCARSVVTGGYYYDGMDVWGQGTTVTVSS
VL: SYVLTQPPSVSVAPGQTARITCGGNNIGSESVHWYQQKPGQAPVLVVYDDSDRPSGIPERFSGSNSGNTATLTISRVEAGDEADYYCQVWDGNSEHVVFGGGTKLTVLG
For B5, the EC50 is 3.67 nM and the Emax was 1610%.

B6: Ab0313 (antibody, IgG4, V domains shown)
VH: QVTLKESGPVLVKPTETLTLTCTVSGFSLNNARVGVSWIRQPPGKALEWLAHIFSNDEKSYSTSLKSRLTISKDTSKSQVVLTMTNMDPVDTATYYCARSVVTGGYYYEGMDVWGQGTTVTVSS
VL: SYVLTQPPSVSVAPGQTARITCGGNNIGSESVHWYQQKPGQAPVLVVYDDSDRPSGIPERFSGSNSGNTATLTISRVEAGDEADYYCQVWTGESDHVVFGGGTKLTVLG
In the case of B6, the EC50 was found to be 0.04 nM and the Emax turned out to be 1130%.

B7: Ab0199 (antibody, IgG4, V domains shown)
VH: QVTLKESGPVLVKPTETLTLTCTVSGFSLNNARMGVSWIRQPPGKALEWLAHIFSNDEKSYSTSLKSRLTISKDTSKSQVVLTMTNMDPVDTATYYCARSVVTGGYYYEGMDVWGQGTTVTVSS
VL: SYVLTQPPSVSVAPGQTARITCGGNNIGSESVHWYQQKPGQAPVLVVYDDSDRPSGIPERFSGSNSGNTATLTISRVEAGDEADYYCQVWDGNSEHVVFGGGTKLTVLG
For B7, the EC50 was > 100 nM and the Emax stood at 736%.

B8: Ab0238 (antibody, IgG4, V domains shown)
VH: not shown
VL: SYVLTQPPSVSVAPGQTARITCGGNNIGSESVHWYQQKPGQAPVLVVYDDSDRPSGIPERFSGSNSGNTATLTISRVEAGDEADYYCQVWDGNSSHVVFGGGTKLTVLG
In the case of B8, the Emax came to 856%.

B9: Ab0237 (antibody, IgG4, V domains shown)
VH: not shown
VL: SYVLTQPPSVSVAPGQTARITCGGNNIGSESVHWYQQKPGQAPVLVVYDDSDRPSGIPERFSGSNSGNTATLTISRVEAGDEADYYCQVWDGNSAHVVFGGGTKLTVLG
Consider B9, for which the half-maximal effective concentration (EC50) was > 100 nM and the Emax turned out to be 667%.

B10: Ab0213 (antibody, IgG4, V domains shown)
VH: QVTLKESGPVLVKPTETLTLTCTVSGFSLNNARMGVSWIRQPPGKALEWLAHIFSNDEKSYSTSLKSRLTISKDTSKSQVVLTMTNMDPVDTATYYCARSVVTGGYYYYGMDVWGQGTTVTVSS
VL: SYVLTQPPSVSVAPGQTARITCGGNNIGSESVHWYQQKPGQAPVLVVYDDSDRPSGIPERFSGSNSGNTATLTISRVEAGDEADYYCQVWDGNSEHVVFGGGTKLTVLG
With B10, the EC50 is > 100 nM and the Emax stood at 122%.

B11: Ab0209 (antibody, IgG4, V domains shown)
VH: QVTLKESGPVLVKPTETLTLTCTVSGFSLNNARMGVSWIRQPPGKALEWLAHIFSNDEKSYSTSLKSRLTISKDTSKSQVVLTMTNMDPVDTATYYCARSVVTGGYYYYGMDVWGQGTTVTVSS
VL: SYVLTQPPSVSVAPGQTARITCGGNNIGSESVHWYQQKPGQAPVLVVYYDSDRPSGIPERFSGSNSGNTATLTISRVEAGDEADYYCQVWDGNSDHVVFGGGTKLTVLG
In the case of B11, the EC50 was found to be 15.3 nM and the Emax is 1960%.

B12: Ab0220 (antibody, IgG4, V domains shown)
VH: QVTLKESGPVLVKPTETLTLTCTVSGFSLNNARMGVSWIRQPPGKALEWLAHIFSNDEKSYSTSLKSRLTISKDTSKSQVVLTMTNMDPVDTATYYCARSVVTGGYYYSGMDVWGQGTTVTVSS
VL: SYVLTQPPSVSVAPGQTARITCGGNNIGSESVHWYQQKPGQAPVLVVYDDSDRPSGIPERFSGSNSGNTATLTISRVEAGDEADYYCQVWDGNSEHVVFGGGTKLTVLG
Regarding B12, the EC50 was 22.2 nM and the Emax was 1190%.

B13: Ab0211 (antibody, IgG4, V domains shown)
VH: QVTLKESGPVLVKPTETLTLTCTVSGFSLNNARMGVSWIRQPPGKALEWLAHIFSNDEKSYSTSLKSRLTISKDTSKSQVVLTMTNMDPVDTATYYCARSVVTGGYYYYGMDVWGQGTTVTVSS
VL: SYVLTQPPSVSVAPGQTARITCGGNNIGSESVHWYQQKPGQAPVLVVYDDSDRPSGIPERFSGSNSGNTATLTISRVEAGDEADYYCQVWTGNSDHVVFGGGTKLTVLG
Consider B13, for which the EC50 amounted to 12 nM and the Emax amounted to 1600%.

B14: Ab0210 (antibody, IgG4, V domains shown)
VH: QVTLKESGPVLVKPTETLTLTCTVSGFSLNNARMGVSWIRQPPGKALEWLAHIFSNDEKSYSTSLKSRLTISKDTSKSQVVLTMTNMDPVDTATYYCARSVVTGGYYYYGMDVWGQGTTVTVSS
VL: SYVLTQPPSVSVAPGQTARITCGGNNIGSESVHWYQQKPGQAPVLVVYDESDRPSGIPERFSGSNSGNTATLTISRVEAGDEADYYCQVWDGNSDHVVFGGGTKLTVLG
On to B14, for which the EC50 amounted to 5.31 nM and the Emax was 2390%.

B15: Ab0386 (antibody, IgG4, V domains shown)
VH: QVTLKESGPVLVKPTETLTLTCTVSGFSLNNARVGVSWIRQPPGKALEWLAHIWSNDEKSYSTSLKSRLTISKDTSKSQVVLTMTNMDPVDTATYYCARSVVTGGYYYEGMDVWGQGTTVTVSS
VL: SYVLTQPPSVSVAPGQTARITCGGNNIGSESVHWYQQKPGQAPVLVVYDDSDRPSGIPERFSGSNSGNTATLTISRVEAGDEADYYCQVFDGNSSHVVFGGGTKLTVLG
B15: the EC50 is > 100 nM.

B16: Ab0350 (antibody, IgG4, V domains shown)
VH: QVTLKESGPVLVKPTETLTLTCTVSGFSLNNARVGVSWIRQPPGKALEWLAHIFSNDEKSYSTSLKSRLTISKDTSKSQVVLTMTNMDPVDTATYYCARSVVTGGYYYEGMDVWGQGTTVTVSS
VL: SYVLTQPPSVSVAPGQTARITCGGSNIGSESVHWYQQKPGQAPVLVVYEESDRPSGIPERFSGSNSGNTATLTISRVEAGDEADYYCQVWAGSSDHVVFGGGTKLTVLG
B16: the EC50 turned out to be 1.46 nM and the Emax came out at 493%.

B17: Ab0415 (antibody, IgG4, V domains shown)
VH: QVTLKESGPVLVKPTETLTLTCTVSGFSLNNARVGVSWIRQPPGKALEWLAHIFSNDEKSYSTSLKSRLTISKDTSKSQVVLTMTNMDPVDTATYYCARSVVTGGYYYEGMDVWGQGTTVTVSS
VL: SYVLTQPPSVSVAPGQTARITCGGSNIGSESVHWYQQKPGQAPVLVVYYESDRPSGIPERFSGSNSGNTATLTISRVEAGDEADYYCQVWAGESDHVVFGGGTKLTVLG
As for B17, the EC50 came to 0.3 nM and the Emax is 674%.

B18: Ab0224 (antibody, IgG4, V domains shown)
VH: not shown
VL: SYVLTQPPSVSVAPGQTARITCGGNNIGSESVHWYQQKPGQAPVLVVYADSDRPSGIPERFSGSNSGNTATLTISRVEAGDEADYYCQVWDGNSDHVVFGGGTKLTVLG
In the case of B18, the EC50 worked out at 0.05 nM and the Emax came to 2260%.

B19: Ab0330 (antibody, IgG4, V domains shown)
VH: QVTLKESGPVLVKPTETLTLTCTVSGFSLNNARVGVSWIRQPPGKALEWLAHIFSNDEKSYSTSLKSRLTISKDTSKSQVVLTMTNMDPVDTATYYCARSVVTGGYYYEGMDVWGQGTTVTVSS
VL: SYVLTQPPSVSVAPGQTARITCGGSNIGSESVHWYQQKPGQAPVLVVYSESDRPSGIPERFSGSNSGNTATLTISRVEAGDEADYYCQVWAGESDHVVFGGGTKLTVLG
Take B19: the EC50 was determined as 0.15 nM and the Emax was 932%.

For the origin of these results see patent US20220010021A1 (Sanofi, published 2022).
